Measurements reported in the DeepSol protein solubility set.

Test: soluble on expression in E. coli; label from the status in PepcDB or PDB records

Soluble on expression in E. coli, not soluble:
MGSDKIHHHHHHMSTPIPSLADAPPVLCVHGIGKTYAEPVLADVSLELRAGEVLALTGENGAGKSTLSKIVGGLVTPTTGSMTLGGAAYAPASRKDAEALGVRMVMQELNLLPTLSVAENLFLNRLPRNLVGWIDRARLRENARHAMAQVGLDAIDPDTLVGTLGIGHQQMVEIARNLIGDCRVLILDEPTAMLTAREVDLLFEQVERLKAHGVALVYISHRLEELKRIARRAAVLRDGRLVHVDEMANLSTDRLVTLMVGRDIGDRIDLGERRIGEVAFKVSGMTREPVVRDVSFEVRAGEIFGISGLIGAGRTELMRLIYGADHADAGSVSLGRGGAAPEPVTIASPSDAVQHGIALITEDRKGEGLLLTQPIAANISLGHLRAVSNKGVVDGRREAALARRQIDAMRIRSAGPSQPVSELSGGNQQKVVIGRWLARDCTVLLFDEPTRGIDVGAKFDIYALMGALAREGRALVVVSSDLRELMAICDRIGVMSAGRMTGLFERGNWTQDALLAAAFAGYAKRDDLLHEPIEPDAKAPDESKLVEY, MGSDKIHHHHHHMSVECFVTGGSGFVGQHLLAGLTAQGHKTWVLMRSPGNIERLKEQVGQLGGNPEYIHAVEGDISQEGLGLSEADKERVTSAAVFFHLAAQFSWGLTPERARTVNVQGALSVARLAASQRIRLLMVGGFMLQNLNHLASIGVDTQCPENTNWPAVYARVGGYEGSKLESHFAVIRYMQDADADYTIVHPATVCGHSENGHILDGQPLAELIRNLAQGRFKAIPGSASHWLPLVSVDYLVKMITCVAFDPSMANRQVLALYERTPNLQGMLGQIADTLKVKAPHRHIPIGLLRSILTIPGLATRLAISAESLNFIQTQRFDMGNSRQLERKYQFTHPDMTQALENTVRYVNGSLMKKSKSEGAGQRG, MGSDKIHHHHHHMSVLTVTGLSQRFLDKVLYQDASFQVNIEDHLGVIGQNGVGKSTLIKILTGAQTPDAGKIVWQKHLHVGYLDQYANLVPGQTVIEFLRTAFSDLYRKEAKMNQIYADYANHPDDDLLAKAGELQQELEAGDFYDLETTIQTVAEGLGITAMGMDHPVEALSGGQRSKLILAKLLLEKPDMLLLDEPTNYLDVSHIAWLTDWLQNFEGAFIVISHDFDFLENVTNAVLDIEFGQITKYTGTLKQAMRQKEADHETYLKAFAKQQETIKKTEAFIRKFKAGTRATMAKSREKQLARMDKLTPPGTRSKAHLAFPYAPVNRQILVDVNDLVVGYDKPLLQPMNFSVAKDQIIAFEGFNGVGKSTLLKTLLGLLPAISGNVEIADNVVFGYYEQELHWDQPKQSPVQYLEQRFPALTQKTVRQVLSRTALTSEEANNPLTMLSGGEQAKVKLADLMLQTTNILVMDEPTNHLDDDTKNALREGLQQYPGAVLLVSHEAGFYDSSWVDTVVNVEQLQVKA, MGSDKIHHHHHHMTAATSVRAQAREEDLSVKEILDSRWFQPEMFKTLDYVKGFVGAKVIFQMLKLGVFDDLLAGKTLEEIASGRSLDPYLLRTVFEYLSVEGLLVKEGRGGGASFRLSDYGSRIKHYEGWFNILIGGYDNIFSNIGAMLEEGIGGYKRDGKWVGVGSCQISKYDTIPITKAFIESVKPDAKQIVDFGCGNALYLCTLAKELGDIKAVGIEPDTSAYEAGLKKVAEMGLQDQVRLVNVDALDYEIDEQPDFILFGFVLQEIIAQIGRPAFIEYLRKLGRKFADSYLMVMEVDYDIDNREVMHSPMGRGYYNPYFLLHPFTNQLLLPKREWDEIFAQAGYDVVRDEVTSPKADPSGFGICYVLKYRGAHC, MGSDKIHHHHHHMTAAVKTTPGFASRLVNGVLAIKPLANLAKHQARQMMIKRAERIGVPWTKEVKTLQARDWKADLTQIENSQLSYPDYYVTSFHAYETGNLSWQAAFEVEPAAYAVHSKVVEGAEEAQGDPMLRQSYHNILKSQIPNEPQDILDVGCSVGLSTFALQAVYSQAKIIGLDLSPYFLAVANYRAQQRQAKINWLHAQAESTGLPDASFDLVSIFLMCHELPQSATRQILAEMRRVLRPGGYLAIMDMNPKSEVYQKMPAYILTLLKSTEPYLDEYFALDIEQAFVEAGFQTPTITNNTHRHRTVIAQVSG, MGSDKIHHHHHHMTALVCLTGSSCTDDENNGQGNNIIYGENIIGNGEQTFEIKDHQYLKRGTYLMKGWCYVTYGSTLTIEAGTVIKGDKETRAALIVEPGGKLIARGTVDAPIVFTSEMPAGKRKPGDWGGLILCGYARNNEDIMQIEGGPRTMHGGPNNADNSGVLSYVRVEFAGYPFKKNQEINGITFGSVGNGTQIDHLQVSYANDDAFEWFGGTVHAEYLVAYHCWDDDFDIDNGYSGTCRHLLGIRHPRIADITGSHAFECSNNGTNTPATPTTAATFEDVTIYGPASGDASFVNHPDFINGGGLRPENESMLGLFGAALYMGNNTSVTFRNCRISGYPSDMEGTPASADNVVFSEREETGYPEWTQGWCNFNPQETEY, MGSDKIHHHHHHMTASLTALRAFDAAARNGSFRAAAADLNVTPTAISHHIRGLEDQLGVKLFRREGRDVALTDDGRRLADATNQAFGLLDNAVQSLRRSARKAVRVSAGPIFTARWLMPRISDFWEAHREIELEVVPAIHPGARDRENVDIVIRWDRIADMGRDAVKLLELSPVAIASEDFVAKRGPIDHPKDLLILPLLHQRNHWGWLDWFEAMGVSLADPLYGPIFEDANVLLRGAAEGQGAIIGWLPLIDQDLAEKRVVRVFDERIAPTHGYFVDVQHNSRARVEVRAVEDWLISQS, MGSDKIHHHHHHMTASVNVPLNSRGKLAASLPAEQLAEITALFEFRRTGYSLDAPFYTDRSIFNIDMEAIFGQHWIFAASTAELPEPGDYVTVDYGPYSLIVLRNDDGAVNVLHNVCRHRGARVLTEAAGSTGNLVCGYHSWTYSPEGNLIHASAPGETKFDKSCFGLKRAHGREVAGLIFVCIADDAPTDFDETAKIFEPYLAPHDLSKTKIAYQQNIIEEGNWKLVMENNRECYHCDGHPELACSLFPTWGLTEGLIPPHLEEVWNRNKEAQSSLEERCRRYGLPYEVVEQLDTRIAGIRISRESLDGEGESFSADGRRLSKKLLGDLPDFRLGRCSMHLQPNSWFHFLGDHVITFGVFPINEHQSLVRTTWLVADDAVEGVDYDLEKLTYTWKQTNLQDKAFVELCQQGAGSPAYEPGPYMKSEYQVEAFINWYVQRVQEHLA, MGSDKIHHHHHHMTDDSLFLIDVDKILRTKAPKQYKYIPKFVVSYLKKIVHQDEINVFLNESKDKLGVDFLEACMEFLDAKVEVKGIENLPKEGLYTFVSNHPLGGQDGVALGYVLGRHYDGKVKYLVNDLLMNLRGLAPLCVPINKTGKQAKDFPKMVEAGFQSDDQMIMFPAGLCSRRQNGVIRDLEWKKTFIIKSIQAKRDVVPVHFGGRNSDFFYNLANVCKALGIKFNIAMLYLADEMFKNRHKTFTVTFGKPIPWQTFDKSKTPAQWAEYVKDIVYKL, MGSDKIHHHHHHMTDSTTLYPVFAEELLPGGGHRSFILKRGELLRLTDLNGNANVSLTLLNAHEKTERLNLPDSLKCQHTAKLSNGHCLYSDMGRVLAAIVTDTCGWSDSIGGVLNAQEVAEKYGQGRYQELRNGFFRNGVDNLLVELGKWGLGLSDLLMTLNLFSRVDVSETGTLHFAPNNSKAGDYIELYAPMDTLVVLTALQHPMDPNPDYVPQPLTLSWMKADASVAEHCRTSRPENERGFINTDRLFA, MGSDKIHHHHHHMTEITTLSQFLTTANTQFQVYDLGRRVQHIDALAFHQIESLLAPYPYPIQGHAQLGLVFWQQSAQPYIWFLKLPLDEQGLLSPAPRSQFIQMILDALGRDLTQELTEAQQEQFANHPFSFKPNQHKLALFNALVRQQLGQPASSQYEFAAQYLSEQAVIGESSAVENESHSWEQLGLQGIADVCVRAQSLDNMDSLIRSFDFSPLPVHAALCQCLEHLPLEPSLAEKIYLLFEQASNEHKASYLAALASSPSLSIKAIAHLAQHNLLDANHLVTIAARNWQALKDDSCRKSYLEALALQEQGFFNQVFADIVAIPSLRQALLLDLRNPERSNILSIAIGGLFKAAQS, MGSDKIHHHHHHMTEITTLTQFLSTANTQFQVYDLGRRVQHIDMMAFSQIEALQAPYPSPIQGHAQFAIVFWDDSNQHFIWFLKLPLDERGLLSPAPRTQFIRMVIEALGSDPTQALSQDQQDTLANHPFAFKPSAEKLALFNALVRKQLGLPASAQYEFAYQYLSGQVSPERWQDVGLQGLADICVRAAALDHNEQLLNALEHSADEVKIALCQQLEHITLDAPLAERLLSAFYQGSPEQKLYYLRALASAPALAQQAIQYLDEQDALDDNALITIAGRNWTALKDDQTRKIYLEALAKQPQGFFNQIFADIVAIPAIRTQLLMALRDSERSQALANAIGGLFRVTKA, MGSDKIHHHHHHMTEVIRDIPFLATDRVEALLDIERHLIVEQSTIERWFRGQWQRTPPPFYASVDLRNAGFKLAPVDTNLFSAGFNNLNPEFSALYVSAIQHYLNQYHPGLERVLLIPENHTRNLFYLESVARLRELLELAGLDVRVGSLILEDRTVYDLPSGGQLLLEPLCRDDGRLSTRGFDAQLILLNNDLSGGVPEILAGLEQPILPPLAAGWRNRRKSQHFTHYRAVAQELAEVIGIDPWLIDPVFRRCQGIDFMRSEGRECLVANVDAVLEITRERYAHYGIHQRPFVIVKADAGTYGMGIMTAYSGEEFLDLNRKERTRMAKSKEGLPVSDVFIQEGVYTFEQTAQEAVAEPVVYMIGQQVLGGFYRVHTERGRDENLNAPGAHFEPMAFGQTCVLPCRKSPPDAPANRYYAYGVIARLTLVAAAREMADWRRQGTLETGQ, MGSDKIHHHHHHMTEYKKILVVINPTVDHQAALARAVELATKSNASITAFLSIYDFSYEMTSILSSHEREAMRQGVIDQRSAWLDTAIAPFNSAGVAIDSKVIWHNRPFESVINCALEGQYDLIVKSTHEHDKLKAVIFTPTDWHLMRKAPMPVLMVKEHDWPVAGKILCALNVASEDSEHQTLNGKIIEHAKDLATKFSADVHLVNGYPGTPVNLAIELPDFDAHAYNNNIRMQHQSRVECLAQAYDIPLDRCHVEEGLPEDVIPEVADRIDAELVILGTVGRTGFSAALIGNTAEHVIDSIRCDLLAIKPEGYVSPLAE, MGSDKIHHHHHHMTFEKNEHKDIAVIGAGPVGMLAALNLAHKGYSVCLIGPPVDTDELRTTALMMPAIHMLQKLNIWNIVKSHAAALSFIRIIDITSRIIRAPTVNFSSAEIGEEAFGYNIPNVELNNALVASVAHTPNIKRFFSSAHFFHHQPNHIHVTLADGGVVQASLIVAADGRDSRTREAADISVKKWNYPQTALVLNFSHDLSHQNTSTEFHTESGPFTQVPLPGHRSSLVWVVNPSRAEELLRLESKVIAKVIEEQMQSMLGKLTLETPIQAWPLSGLISQRFAANRTILVGEAAHVFPPIGAQGLNLGFRDIQTLIDILPNKISDFNSKKIVAHYNKCRKPDILIRSGSVHMFNSALLSNMLPVHIIRSFGLGLLRNCSPLRNLFTREGIYPGYGFKKIMQTFPIKSHKQESSIFFSVLVKDRDSEMISKSSLF, MGSDKIHHHHHHMTFEPYPFERLRALLKEITPKKRGLDLGIGEPQFETPKFIQDALKNHTHSLNIYPKSAFEESLRAAQRGFFKRRFKIELKENELISTLGSREVLFNFPSFVLFDYQNPTIAYPNPFYQIYEGAAKFIKAKSLLMPLTKENDFTPSLNEKELQEVDLVILNSPNNPTGRTLSLEELISWVKLALKHDFILINDECYSEIYENTPPPSLLEACMLAGNEAFKNVLVIHSLSKRSSAPGLRSGFIAGDSRLLEKYKAFRAYLGYTSANAIQKASEAAWLDDRHAEFFRNIYANNLKLARKIFKNTLIYPYSFYVYLPVQNGENFAKTLYQNEGIITLPALYLGRNRIGADYVRLALVYDTPLLEKPLEIIETYRENHA, MGSDKIHHHHHHMTHIVHKGLDFFVKPQKVSLNLNMKIGSLKVHPEDLKLLMKKVPVFMMSYYDNKAFMERELEISSADFPNGVVFFSYYEPVPAELNWDVDKKLISQLTKYFHLYDLVHSINSLIDETEGSSLHIGVYEEWLDRIMVKVPSENTEELRNMLSRFSLLYTTKILWKIFRGNFEELKKRTHEIAYKLYEVAGF
